Reference: the supplement of paper PMC10899765

Legend:
Settings in all cases: 20 nM; 72 h
[1] = system: MCF10A; assay: one-nucleolus phenotype percent effect (relative to siNT 0% and siNOL11 100%); higher = more cells with one nucleolus (ribosome biogenesis inhibition)
Description: (§1)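 After 72 h, cells were fixed and stained with Hoechst and anti-fibrillarin, and nucleoli per nucleus were counted with CellProfiler. Values are plate-adjusted percent effect for the one-nucleolus and 5+ nucleoli phenotypes, normalised to siNT (0%) and to the positive controls siNOL11 or siKIF11 (100%), as the mean of biological triplicates. Percent viability is the nuclei count relative to siNT.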

[2] = system: MCF10A; assay: 5+ nucleoli phenotype percent effect (relative to siNT 0% and siKIF11 100%); higher = more cells with five or more nucleoli
Description: as §1

[3] = system: MCF10A; assay: percent viability (nuclei count relative to siNT); higher = more viable cells
Description: as §1

Sequence: CUCGGGAGGGCAUGGGCCAGGC [hsa-miR-6771-5p]
- one-nucleolus phenotype percent effect [1]: -0.506%
- 5+ nucleoli phenotype percent effect [2]: -1.93%
- percent viability [3]: 50.5%

Sequence: CUCGGGCGGAGGUGGUUGAGUG [hsa-miR-4750-5p]
- one-nucleolus phenotype percent effect [1]: 14.8%
- 5+ nucleoli phenotype percent effect [2]: -7.37%
- percent viability [3]: 40.2%

Sequence: CUCGGGGCAGGCGGCUGGGAGCG [hsa-miR-6727-5p]
- one-nucleolus phenotype percent effect [1]: -15.9%
- 5+ nucleoli phenotype percent effect [2]: 19.5%
- percent viability [3]: 74.2%

Sequence: CUCGUGGGCUCUGGCCACGGCC [hsa-miR-3677-3p]
- one-nucleolus phenotype percent effect [1]: -2.83%
- 5+ nucleoli phenotype percent effect [2]: -9.65%
- percent viability [3]: 56.2%

Sequence: CUCUAGAGGGAAGCACUUUCUC [hsa-miR-518f-5p]
- one-nucleolus phenotype percent effect [1]: 8.67%
- 5+ nucleoli phenotype percent effect [2]: 3.35%
- percent viability [3]: 33.5%

Sequence: CUCUAGAGGGAAGCACUUUCUG [hsa-miR-518d-5p]
- one-nucleolus phenotype percent effect [1]: -4.59%
- 5+ nucleoli phenotype percent effect [2]: 5.06%
- percent viability [3]: 57.8%

Sequence: CUCUAGAGGGAAGCACUUUCUG [hsa-miR-520c-5p]
- one-nucleolus phenotype percent effect [1]: -6.38%
- 5+ nucleoli phenotype percent effect [2]: 17.5%
- percent viability [3]: 82.7%

Sequence: CUCUAGAGGGAAGCACUUUCUG [hsa-miR-526a]
- one-nucleolus phenotype percent effect [1]: 0.562%
- 5+ nucleoli phenotype percent effect [2]: -7.42%
- percent viability [3]: 39.9%

Sequence: CUCUAGAGGGAAGCGCUUUCUG [hsa-miR-518e-5p]
- one-nucleolus phenotype percent effect [1]: -0.877%
- 5+ nucleoli phenotype percent effect [2]: 3.26%
- percent viability [3]: 26.7%

Sequence: CUCUAGAGGGAAGCGCUUUCUG [hsa-miR-519a-5p]
- one-nucleolus phenotype percent effect [1]: -15.1%
- 5+ nucleoli phenotype percent effect [2]: -2.96%
- percent viability [3]: 56.5%

Sequence: CUCUAGAGGGAAGCGCUUUCUG [hsa-miR-519b-5p]
- one-nucleolus phenotype percent effect [1]: 5.75%
- 5+ nucleoli phenotype percent effect [2]: -5.59%
- percent viability [3]: 36.9%

Sequence: CUCUAGAGGGAAGCGCUUUCUG [hsa-miR-519c-5p]
- one-nucleolus phenotype percent effect [1]: 1.39%
- 5+ nucleoli phenotype percent effect [2]: -10.6%
- percent viability [3]: 31.6%

Sequence: CUCUAGAGGGAAGCGCUUUCUG [hsa-miR-522-5p]
- one-nucleolus phenotype percent effect [1]: -5.68%
- 5+ nucleoli phenotype percent effect [2]: 0.209%
- percent viability [3]: 40.6%

Sequence: CUCUAGAGGGAAGCGCUUUCUG [hsa-miR-523-5p]
- one-nucleolus phenotype percent effect [1]: 5.46%
- 5+ nucleoli phenotype percent effect [2]: -3.36%
- percent viability [3]: 54.8%

Sequence: CUCUAGCCACAGAUGCAGUGAU [hsa-miR-1287-3p]
- one-nucleolus phenotype percent effect [1]: 31.4%
- 5+ nucleoli phenotype percent effect [2]: -37.2%
- percent viability [3]: 17%

Sequence: CUCUCACCACUGCCCUCCCACAG [hsa-miR-1229-3p]
- one-nucleolus phenotype percent effect [1]: -20.5%
- 5+ nucleoli phenotype percent effect [2]: 24.9%
- percent viability [3]: 75.8%

Sequence: CUCUCUACUGACUUGCAACAUA [hsa-miR-4684-5p]
- one-nucleolus phenotype percent effect [1]: -6.81%
- 5+ nucleoli phenotype percent effect [2]: 33.1%
- percent viability [3]: 72.5%

Sequence: CUCUCUGGCCGUCUACCUUCCA [hsa-miR-3191-5p]
- one-nucleolus phenotype percent effect [1]: 46.1%
- 5+ nucleoli phenotype percent effect [2]: -62.4%
- percent viability [3]: 31.4%

Sequence: CUCUGAUCGCCCUCUCAGCUC [hsa-miR-3192-3p]
- one-nucleolus phenotype percent effect [1]: 57.6%
- 5+ nucleoli phenotype percent effect [2]: -48.8%
- percent viability [3]: 34.9%

Sequence: CUCUGGGAAAUGGGACAG [hsa-miR-4314]
- one-nucleolus phenotype percent effect [1]: 11.2%
- 5+ nucleoli phenotype percent effect [2]: -5.34%
- percent viability [3]: 25.6%

Sequence: CUGAACUAGAGAUUGGGCCCA [hsa-miR-7158-3p]
- one-nucleolus phenotype percent effect [1]: 16%
- 5+ nucleoli phenotype percent effect [2]: -10.2%
- percent viability [3]: 32.7%

Sequence: CUGAAGCUCAGAGGGCUCUGAU [hsa-miR-127-5p]
- one-nucleolus phenotype percent effect [1]: 39%
- 5+ nucleoli phenotype percent effect [2]: -40.5%
- percent viability [3]: 45.5%

Sequence: CUGAAGUGAUGUGUAACUGAUCAG [hsa-miR-573]
- one-nucleolus phenotype percent effect [1]: -6.66%
- 5+ nucleoli phenotype percent effect [2]: -8.65%
- percent viability [3]: 69%

Sequence: CUGAAUAGCUGGGACUACAGGU [hsa-miR-5585-3p]
- one-nucleolus phenotype percent effect [1]: -12.6%
- 5+ nucleoli phenotype percent effect [2]: 16.9%
- percent viability [3]: 44.1%

Sequence: CUGACCUAUGAAUUGACAGCC [hsa-miR-192-5p]
- one-nucleolus phenotype percent effect [1]: 57.2%
- 5+ nucleoli phenotype percent effect [2]: -30%
- percent viability [3]: 28.2%

Sequence: CUGACUGAAUAGGUAGGGUCAUU [hsa-miR-3136-5p]
- one-nucleolus phenotype percent effect [1]: 24.8%
- 5+ nucleoli phenotype percent effect [2]: -32.9%
- percent viability [3]: 32.7%

Sequence: CUGACUGUUGCCGUCCUCCAG [hsa-miR-943]
- one-nucleolus phenotype percent effect [1]: -0.183%
- 5+ nucleoli phenotype percent effect [2]: -13.7%
- percent viability [3]: 62.9%

Sequence: CUGAUAAGAACAGAGGCCCAGAU [hsa-miR-3161]
- one-nucleolus phenotype percent effect [1]: 18.2%
- 5+ nucleoli phenotype percent effect [2]: -24.6%
- percent viability [3]: 34.7%

Sequence: CUGCAAAGGGAAGCCCUUUC [hsa-miR-518a-5p]
- one-nucleolus phenotype percent effect [1]: 60.3%
- 5+ nucleoli phenotype percent effect [2]: -45.8%
- percent viability [3]: 32.4%

Sequence: CUGCAAAGGGAAGCCCUUUC [hsa-miR-527]
- one-nucleolus phenotype percent effect [1]: 46.6%
- 5+ nucleoli phenotype percent effect [2]: -41.4%
- percent viability [3]: 32.8%

Sequence: CUGCAAUGUAAGCACUUCUUAC [hsa-miR-106a-3p]
- one-nucleolus phenotype percent effect [1]: 18.7%
- 5+ nucleoli phenotype percent effect [2]: -24.5%
- percent viability [3]: 72.6%

Sequence: CUGCAGACUCGACCUCCCAGGC [hsa-miR-1273h-3p]
- one-nucleolus phenotype percent effect [1]: 13.6%
- 5+ nucleoli phenotype percent effect [2]: -28.5%
- percent viability [3]: 41.7%

Sequence: CUGCAGAGUUUGUACGGACCGG [hsa-miR-3678-3p]
- one-nucleolus phenotype percent effect [1]: 10.8%
- 5+ nucleoli phenotype percent effect [2]: -37.4%
- percent viability [3]: 66.6%

Sequence: CUGCAGCCACUUGGGGAACUGGU [hsa-miR-7156-3p]
- one-nucleolus phenotype percent effect [1]: 8.88%
- 5+ nucleoli phenotype percent effect [2]: -7.7%
- percent viability [3]: 57.4%

Sequence: CUGCAGGCAGAAGUGGGGCUGACA [hsa-miR-6511b-5p]
- one-nucleolus phenotype percent effect [1]: 39.6%
- 5+ nucleoli phenotype percent effect [2]: -9.29%
- percent viability [3]: 27.4%

Sequence: CUGCCAGCCCCGUUCCAGGGCA [hsa-miR-3972]
- one-nucleolus phenotype percent effect [1]: -2.85%
- 5+ nucleoli phenotype percent effect [2]: -1.63%
- percent viability [3]: 42.9%

Sequence: CUGCCAUGUCUAAGAAGAAAAC [hsa-miR-4659a-5p]
- one-nucleolus phenotype percent effect [1]: -12.3%
- 5+ nucleoli phenotype percent effect [2]: -0.515%
- percent viability [3]: 68.5%

Sequence: CUGCCCUAGUCUAGCUGAAGCU [hsa-miR-3157-3p]
- one-nucleolus phenotype percent effect [1]: -21.2%
- 5+ nucleoli phenotype percent effect [2]: 27.8%
- percent viability [3]: 170%

Sequence: CUGCCCUGGCCCGAGGGACCGA [hsa-miR-874]
- one-nucleolus phenotype percent effect [1]: 4.65%
- 5+ nucleoli phenotype percent effect [2]: -5.29%
- percent viability [3]: 62.9%

Sequence: CUGCCUGUUCUUCCACUCCAG [hsa-miR-6514-3p]
- one-nucleolus phenotype percent effect [1]: 59.9%
- 5+ nucleoli phenotype percent effect [2]: -62.1%
- percent viability [3]: 9.75%

Sequence: CUGCGCAAGCUACUGCCUUGCU [hsa-let-7i-3p]
- one-nucleolus phenotype percent effect [1]: -4.21%
- 5+ nucleoli phenotype percent effect [2]: 0.0505%
- percent viability [3]: 110%

Sequence: CUGGACUGAGCCAUGCUACUGG [hsa-miR-1269b]
- one-nucleolus phenotype percent effect [1]: 2.22%
- 5+ nucleoli phenotype percent effect [2]: 18.3%
- percent viability [3]: 60.9%

Sequence: CUGGACUGAGCCGUGCUACUGG [hsa-miR-1269a]
- one-nucleolus phenotype percent effect [1]: 6.41%
- 5+ nucleoli phenotype percent effect [2]: -26.1%
- percent viability [3]: 52.7%

Sequence: CUGGACUUUGAUCUUGCCAUAA [hsa-miR-8058]
- one-nucleolus phenotype percent effect [1]: 32.1%
- 5+ nucleoli phenotype percent effect [2]: -11.1%
- percent viability [3]: 58.9%

Sequence: CUGGAGAUAUGGAAGAGCUGUGU [hsa-miR-1270]
- one-nucleolus phenotype percent effect [1]: 38.6%
- 5+ nucleoli phenotype percent effect [2]: -41.4%
- percent viability [3]: 34.1%

Sequence: CUGGAGUCUAGGAUUCCA [hsa-miR-4309]
- one-nucleolus phenotype percent effect [1]: 33.6%
- 5+ nucleoli phenotype percent effect [2]: -25.6%
- percent viability [3]: 33.2%

Sequence: CUGGAUGGCUCCUCCAUGUCU [hsa-miR-432-3p]
- one-nucleolus phenotype percent effect [1]: 62%
- 5+ nucleoli phenotype percent effect [2]: -33.6%
- percent viability [3]: 16.2%

Sequence: CUGGCAGGGGGAGAGGUA [hsa-miR-7150]
- one-nucleolus phenotype percent effect [1]: 46.7%
- 5+ nucleoli phenotype percent effect [2]: 0.85%
- percent viability [3]: 43.9%

Sequence: CUGGCCCUCUCUGCCCUUCCGU [hsa-miR-328]
- one-nucleolus phenotype percent effect [1]: -8.63%
- 5+ nucleoli phenotype percent effect [2]: 47.4%
- percent viability [3]: 64%

Sequence: CUGGCCUCUUCUUUCUCCUAG [hsa-miR-6878-3p]
- one-nucleolus phenotype percent effect [1]: -7.63%
- 5+ nucleoli phenotype percent effect [2]: 96%
- percent viability [3]: 45.7%

Sequence: CUGGGACAGGAGGAGGAGGCAG [hsa-miR-4298]
- one-nucleolus phenotype percent effect [1]: -17.4%
- 5+ nucleoli phenotype percent effect [2]: 39.2%
- percent viability [3]: 67.8%

Sequence: CUGGGAGAAGAGUGGUGAAGA [hsa-miR-6788-5p]
- one-nucleolus phenotype percent effect [1]: 10%
- 5+ nucleoli phenotype percent effect [2]: -4.55%
- percent viability [3]: 24.9%

Sequence: CUGGGAGAAGGCUGUUUACUCU [hsa-miR-30c-2-3p]
- one-nucleolus phenotype percent effect [1]: 45.5%
- 5+ nucleoli phenotype percent effect [2]: -29.4%
- percent viability [3]: 21.9%

Sequence: CUGGGAGAGGGUUGUUUACUCC [hsa-miR-30c-1-3p]
- one-nucleolus phenotype percent effect [1]: 23.4%
- 5+ nucleoli phenotype percent effect [2]: -21.9%
- percent viability [3]: 13.1%

Sequence: CUGGGAGGGGCUGGGUUUGGC [hsa-miR-6779-5p]
- one-nucleolus phenotype percent effect [1]: 10.8%
- 5+ nucleoli phenotype percent effect [2]: 2.1%
- percent viability [3]: 36.8%

Sequence: CUGGGAGGUCAAGGCUGCAGU [hsa-miR-1273h-5p]
- one-nucleolus phenotype percent effect [1]: 11.3%
- 5+ nucleoli phenotype percent effect [2]: 11.3%
- percent viability [3]: 38.1%

Sequence: CUGGGAGGUGGAUGUUUACUUC [hsa-miR-30b-3p]
- one-nucleolus phenotype percent effect [1]: 39.4%
- 5+ nucleoli phenotype percent effect [2]: -27.8%
- percent viability [3]: 12.9%

Sequence: CUGGGAGGUGUGAUAUCGUGGU [hsa-miR-3689a-3p]
- one-nucleolus phenotype percent effect [1]: 27.5%
- 5+ nucleoli phenotype percent effect [2]: 27.1%
- percent viability [3]: 12.5%

Sequence: CUGGGAGGUGUGAUAUUGUGGU [hsa-miR-3689b-3p]
- one-nucleolus phenotype percent effect [1]: 33.2%
- 5+ nucleoli phenotype percent effect [2]: -12.6%
- percent viability [3]: 11.3%
